This note sets out measurements from patent publication US20060134737A1 (VLAAMS INTERUNIVERSITAIR INSTITUUT VOOR BIOTECHNOLOGIE VZW, published 2006).

This assay has as its target T1, cMyc-tagged Smurf2 (C716G), ligase inactive point mutant (UniProt Q9HAU4 1-748, limits assumed).
T1 construct: whole, on cells; Expressed from pCAGGS in HEK293T cells; co-immunoprecipitation from lysates; also called cMyc-Smurf2 (C716G); c-myc-Smurf2(C716G); not shown: cMyc tag
Kind of assay: co-immunoprecipitation of TNF-R2 with utr-1 from HEK293T lysates without cotransfected TRAF2, anti-cMyc Western blot.

T1 sequence (Q9HAU4 whole entry C716G): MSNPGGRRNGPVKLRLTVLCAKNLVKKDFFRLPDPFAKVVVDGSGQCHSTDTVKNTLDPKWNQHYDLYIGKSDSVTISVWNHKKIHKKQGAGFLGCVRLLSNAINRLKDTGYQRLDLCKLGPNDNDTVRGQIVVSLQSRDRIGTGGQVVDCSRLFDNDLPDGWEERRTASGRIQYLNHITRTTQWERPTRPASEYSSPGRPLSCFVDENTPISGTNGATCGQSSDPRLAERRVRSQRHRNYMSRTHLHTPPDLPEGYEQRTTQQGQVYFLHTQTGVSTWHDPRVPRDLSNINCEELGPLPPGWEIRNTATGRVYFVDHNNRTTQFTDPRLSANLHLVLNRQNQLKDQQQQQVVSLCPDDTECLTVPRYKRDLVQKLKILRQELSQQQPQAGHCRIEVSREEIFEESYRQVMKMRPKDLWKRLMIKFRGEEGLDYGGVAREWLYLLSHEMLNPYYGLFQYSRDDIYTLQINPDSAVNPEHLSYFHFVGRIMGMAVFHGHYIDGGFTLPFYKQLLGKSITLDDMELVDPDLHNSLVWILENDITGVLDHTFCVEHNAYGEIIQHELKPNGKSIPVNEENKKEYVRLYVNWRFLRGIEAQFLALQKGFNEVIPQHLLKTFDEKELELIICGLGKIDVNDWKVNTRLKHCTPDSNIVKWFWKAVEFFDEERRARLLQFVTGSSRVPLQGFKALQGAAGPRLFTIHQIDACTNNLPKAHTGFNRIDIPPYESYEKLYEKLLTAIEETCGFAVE

B1: TNF receptor 2 (TNF-R2) wild type, pcDNAI-hTNF-R2 (receptor, UniProt P20333 23-461, looked up)
chain: LPAQVAFTPYAPEPGSTCRLREYYDQTAQMCCSKCSPGQHAKVFCTKTSDTVCDSCEDSTYTQLWNWVPECLSCGSRCSSDQVETQACTREQNRICTCRPGWYCALSKQEGCRLCAPLRKCRPGFGVARPGTETSDVVCKPCAPGTFSNTTSSTDICRPHQICNVVAIPGNASMDAVCTSTSPTRSMAPGAVHLPQPVSTRSQHTQPTPEPSTAPSTSFLLPMGPSPPAEGSTGDFALPVGLIVGVTALGLLIIGVVNCVIMTQVKKKPLCLQREAKVPHLPADKARGTQGPEQQHLLITAPSSSSSSLESSASALDRRAPTRNQPQAPGVEASGAGEARASTGSSDSSPGGHGTQVNVTCIVNVCSSSDHSSQCSSQASSTMGDTDSSPSESPKDEQVPFSKEECAFRSQLETPETLLGSTEEKPLPLGVPDAGMKPS
notes: also called TNF-R2 WT
As for B1, the binding result is recorded as “no binding”.
